Test results: paper PMC13231165

Experiments:
[1] = molecular target: PCV2 Rep WT (catalytically inactive) (Porcine circovirus 2 (PCV2)) (UniProt Q8BB16); assay: fluorescence polarization; conditions: 50 mM NaCl, 50 mM HEPES pH 8.0, 0.05% Tween-20, 1 mM DTT, 5 uM MnCl2 (SI legend: 50 uM Mn2+) or EDTA; 10 nM FAM substrate, protein from 1 uM in 1:2 dilutions …
[2] = molecular target: PCV2 Rep WT (catalytically inactive) (Porcine circovirus 2 (PCV2)) (UniProt Q8BB16); assay: fluorescence polarization; conditions: 50 mM NaCl, 50 mM HEPES pH 8.0, 0.05% Tween-20, 1 mM DTT, 5 uM MnCl2 (SI legend: 50 uM Mn2+) or EDTA; 10 nM FAM substrate, protein from 1 uM in 1:2 dilutions …; remark: listed apart in the source

UniProt Q8BB16, sequence (Q8BB16 whole entry): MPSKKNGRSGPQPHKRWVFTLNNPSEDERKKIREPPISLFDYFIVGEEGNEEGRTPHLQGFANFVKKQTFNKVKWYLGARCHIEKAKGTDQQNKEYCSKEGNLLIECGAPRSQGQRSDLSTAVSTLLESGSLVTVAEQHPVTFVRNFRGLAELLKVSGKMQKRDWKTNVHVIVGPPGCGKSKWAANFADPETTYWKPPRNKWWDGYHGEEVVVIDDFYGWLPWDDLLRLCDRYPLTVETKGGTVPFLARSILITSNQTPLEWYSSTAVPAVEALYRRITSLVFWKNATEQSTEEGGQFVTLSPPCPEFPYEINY

| Sequence | Kd [1] [nM] | Kd [2] [nM] |
| --- | --- | --- |
| CGTAAATATTACCGTC [HUHDNA_FAM] | 30 | 6 |
| CGUAAAAUAUUACCGUC [HUHRNA_FAM] | 100 | 90 |
